Laboratory results as given in paper PMC3553976 (Nucleic Acids Research, 2012).
Where two headings read alike, the source gives them in different places. Values belong to the binder of their own block, whether it stands above or below them.

T1: SF1^HH (residues 27–145) (human, UniProt Q15637 27-145)
T1 sequence: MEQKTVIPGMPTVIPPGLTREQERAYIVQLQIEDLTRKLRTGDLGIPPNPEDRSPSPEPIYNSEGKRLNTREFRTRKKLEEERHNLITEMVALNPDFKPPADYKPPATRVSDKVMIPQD

B1: His6-tagged SF1^2-320 (domain or fragment, human, UniProt Q15637 2-320, looked up)
chain: ATGANATPLDFPSKKRKRSRWNQDTMEQKTVIPGMPTVIPPGLTREQERAYIVQLQIEDLTRKLRTGDLGIPPNPEDRSPSPEPIYNSEGKRLNTREFRTRKKLEEERHNLITEMVALNPDFKPPADYKPPATRVSDKVMIPQDEYPEINFVGLLIGPRGNTLKNIEKECNAKIMIRGKGSVKEGKVGRKDGQMLPGEDEPLHALVTANTMENVKKAVEQIRNILKQGIETPEDQNDLRKMQLRELARLNGTLREDDNRILRPWQSSETRSITNTTVCTKCGGAGHIASDCKFQRPGDPQSAQDKARMDKEYLSLMAEL
B2: SF1^2-320 with the α1–α2 linker deleted (Δ75–90) (domain or fragment, human)
chain: ATGANATPLDFPSKKRKRSRWNQDTMEQKTVIPGMPTVIPPGLTREQERAYIVQLQIEDLTRKLRTGDLGIPPGTGKRLNTREFRTRKKLEEERHNLITEMVALNPDFKPPADYKPPATRVSDKVMIPQDEYPEINFVGLLIGPRGNTLKNIEKECNAKIMIRGKGSVKEGKVGRKDGQMLPGEDEPLHALVTANTMENVKKAVEQIRNILKQGIETPEDQNDLRKMQLRELARLNGTLREDDNRILRPWQSSETRSITNTTVCTKCGGAGHIASDCKFQRPGDPQSAQDKARMDKEYLSLMAEL
B3: SF1^2-320 with helix α1 deleted (Δ35–68) (domain or fragment, human)
chain: ATGANATPLDFPSKKRKRSRWNQDTMEQKTVIPGTDLGIPPNPEDRSPSPEPIYNSEGKRLNTREFRTRKKLEEERHNLITEMVALNPDFKPPADYKPPATRVSDKVMIPQDEYPEINFVGLLIGPRGNTLKNIEKECNAKIMIRGKGSVKEGKVGRKDGQMLPGEDEPLHALVTANTMENVKKAVEQIRNILKQGIETPEDQNDLRKMQLRELARLNGTLREDDNRILRPWQSSETRSITNTTVCTKCGGAGHIASDCKFQRPGDPQSAQDKARMDKEYLSLMAEL
B4: SF1-Δα2, SF1^2-320 with helix α2 deleted (Δ96–128) (domain or fragment, human)
chain: ATGANATPLDFPSKKRKRSRWNQDTMEQKTVIPGMPTVIPPGLTREQERAYIVQLQIEDLTRKLRTGDLGIPPNPEDRSPSPEPIYNSEGKRLNGTYKPPATRVSDKVMIPQDEYPEINFVGLLIGPRGNTLKNIEKECNAKIMIRGKGSVKEGKVGRKDGQMLPGEDEPLHALVTANTMENVKKAVEQIRNILKQGIETPEDQNDLRKMQLRELARLNGTLREDDNRILRPWQSSETRSITNTTVCTKCGGAGHIASDCKFQRPGDPQSAQDKARMDKEYLSLMAEL
B5: SF1 (residues 1–260) (domain or fragment, human, UniProt Q15637 1-260, looked up)
chain: MATGANATPLDFPSKKRKRSRWNQDTMEQKTVIPGMPTVIPPGLTREQERAYIVQLQIEDLTRKLRTGDLGIPPNPEDRSPSPEPIYNSEGKRLNTREFRTRKKLEEERHNLITEMVALNPDFKPPADYKPPATRVSDKVMIPQDEYPEINFVGLLIGPRGNTLKNIEKECNAKIMIRGKGSVKEGKVGRKDGQMLPGEDEPLHALVTANTMENVKKAVEQIRNILKQGIETPEDQNDLRKMQLRELARLNGTLREDDNR
B6: pSF1, phosphorylated SF1 (residues 1–260) (domain or fragment)
chain: B5 chain
modifications: phosphoserine at 80 and 82
B7: U2AF65^UHM, C-terminal U2AF homology motif domain of U2AF65 (residues 372–475) (domain or fragment)
chain: GHPTEVLCLMNMVLPEELLDDEEYEEIVEDVRDECSKYGLVKSIEIPRPVDGVEVPGCGKIFVEFTSVFDCQKAMQGLTGRKFANRVVVTKYCDPDSYHRRDFW

How the values were obtained:
[1] = molecular target: T2, U2AF65^RRM123 (residues 147–475) (human, UniProt P26368 147-475); assay: native gel or EMSA
Target sequence in this assay (P26368 147-475, one chain of several): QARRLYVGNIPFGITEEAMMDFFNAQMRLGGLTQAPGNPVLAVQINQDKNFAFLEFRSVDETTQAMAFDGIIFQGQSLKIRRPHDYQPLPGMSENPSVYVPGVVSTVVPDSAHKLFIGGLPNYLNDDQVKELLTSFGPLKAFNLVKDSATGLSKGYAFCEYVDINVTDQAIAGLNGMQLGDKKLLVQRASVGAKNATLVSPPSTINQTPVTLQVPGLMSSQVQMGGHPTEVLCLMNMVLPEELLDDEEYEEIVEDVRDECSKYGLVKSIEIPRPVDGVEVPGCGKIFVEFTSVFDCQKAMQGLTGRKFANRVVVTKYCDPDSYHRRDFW

[2] = molecular target: T2, U2AF65^RRM123 (residues 147–475); assay: ITC
SF1^HH (residues 27–145) = molecular target: T1, SF1^HH (residues 27–145); assay: ITC
SF1^NTD (residues 1–145) [3] = molecular target: T3, SF1^NTD (residues 1–145) (human, UniProt Q15637 1-145); assay: ITC
SF1^NTD (residues 1–145) [4] = molecular target: T3, SF1^NTD (residues 1–145); assay: ITC; remark: listed apart in the source
[5] = molecular target: B7; assay: ITC

Binder: B1
- binding result [1]: binds

Binder: B2
- binding result [1]: binds

Binder: B3
- binding result [1]: binds

Binder: B4
- binding result [1]: binds

Binder: B5
- Kd [2]: 114 ± 23 nM

Binder: B6
- Kd [2]: 96 ± 32 nM

Binder: B7
- Kd (SF1^HH (residues 27–145)): > 100000 nM
- Kd (SF1^NTD (residues 1–145) [3]): 85 nM
- Kd (SF1^NTD (residues 1–145) [4]): 84 ± 23 nM

- Kd [5]: 127 ± 48 nM
Binder: MATGANATPLDFPSKKRKRSRWNQD (peptide, UniProt Q15637 1-25, looked up) [SF1^ULM (residues 1–25)]
